doi:10.1101/2023.02.24.529973 (bioRxiv, 2023)

Biological target: the molecule itself
Test: SEC

B1: Rv2067c, recombinant tagless protein (enzyme)
chain: TDDHPRADIVSRQYHRWLYPHPIADLEAWTTANWEWFDPVHSHRILWPDREYRPDLDILIAGCGTNQAAIFAFTNRAAKVVAIDISRPALDHQQYLKDKHGLANLELHLLPIEELATLGRDFDLVVSTGVLHHLADPRAGMKELAHCLRRDGVVAAMLYGKYGRIGVELLGSVFRDLGLGQDDASIKLAKEAISLLPTYHPLRNYLTKARDLLSDSALVDTFLHGRQRSYTVEECVDLVTSAGLVFQGWFHKAPYYPHDFFVPNSEFYAAVNTLPEVKAWSVMERLETLNATHLFMACRRDRPKEQYTIDFSTVAALDYVPLMRTRCGVSGTDMFWPGWRMAPSPAQLAFLQQVDGRRTIREIAGCVARTGEPSGGSLADLEEFGRKLFQSLWRLDFVAVALPASG
  stoichiometry N: 2
